Laboratory results reported in patent US20230226096A1 (Orna Therapeutics, Inc., priority 2020, published 2023).

Tested on: HEK293 cells
Format: cell-based, human
Details: luminescence from secreted Gluc in supernatant 24 hours after transfection of HEK293 cells; circular RNA encoding Gluc with the named IRES (UTR truncated to 675 nt)

Molecule	Expression
Cosavirus D1 (nucleic acid, listed as Cosavirus sp.) DNA: CGTGCTTTACACGGTTTTTGAACCCCACACCGGCTGTTTGGCGCTTGCAGGACAGTAGGTATATTTTCTTTCATTTCTCTTTTCTAGCCGCGTAGGTTCTATCTACGCGGGCGGAGTGATACTCCCGCTCCTTCTTGGACAGGCGGCCTCCACGCTCTTTGTGGATCTTAAGGCTGCCAAGTCACTGGTGTTTGAAGTGAAGAATGGAGAGACACTAGGGCGTTTCATGTGGCTTTGCCAGGGATTGTAGCGATGCTGTGTGTGTGTGCGGATTTCCCCTCGTGGCGACACGAGCCTCACAGGCCAAAAGCCCTGTCCGAAAGGACCCACACAGTGGGGTTGCCCCGACCCCTCCCTTCAAAGCTTTGTGTAAACAAACTTTTGTTTAGACTTTCTTAAGCTTCTCTCACATCAGGCCCCAAAGATGTCCTGAAGGTACCCTGTGTATCTGAGGATGAGCACCACCAACTACCCGGACTTGTGGGACGTGTCCCACAGACGCATGTGGTATTCCAGCCCCCTCCTTTTGAGGAGGGGGCTTTTGCTCGCTCAGCACAGGATCTGATCAGGAGATTCATCTCTGGTGCTTTACACCAGAGCATGGATTTAAAAATTGCCCAAGGCCTGGCAAACAACCTAGGGGACTAGGTTTTCTCTATTTTAAAAGATGTCAAT	2.11E+06
EMCV1 AnrB-3741 (nucleic acid) DNA: ATGTGGTCGAAGCCACTTGGAATAAGACCGGCGTGCGCTTGTCTATATGTTACTTCCACCACATTGCCGTCTTTTGGCAATGTGAGGGCCCGGAACCTGGCCCTGTCTTCTTGACGAACATTCCTAGGGGACTTTCCCCTCTCGCCAAAGGAATGTAAGGTCTGTTGAATGTCGTGAAGGAAGCAGTTCCTCTGGAAGCTTCTTGAAGACAAACAGCGTCTGTAGCGACCCTTTGCAGGCAGCGGAACCCCCCACCTGGTAACAGGTGCCTCTGCGGCCGAAAGCCACGTGTATAAGATACACCTGCAAAGGCGGCACAACCCCAGTGCCACGTTGTGCGTTGGATAGTTGTGGAAAGAGTCAAATGGCTTTCCCCAAGCGTATTCAACAAGGGGCTGAAGGATGCCCAGAAGGTACCCCACTGGTTGGGATCTGATCTGGGGCCTCGGTGCAGGTGCTTTACACCTGTTGAGTCGAGGTTAAAAAACGTCTAGGCCCCCCGAACCACGGGGACGTGGTTTTCCTAGAAAACCACTATGACAAT	2.55E+06
EMCV2 RD1338 (nucleic acid) DNA: AAATACTGGTCGAAACCGCTTGGGATAAGACCGGGGTTTGTTAATGTCTCAATGTTATTCTCCACCCAATTGACGTCTTTTGTCAATTGGAGGGCAGTGAAACCTTGCCCTTGCTTCTTGCAGAGGATTCCCAGTGGTCTTTCCGCTCTCGACAAGGGAATTCATGATCCACCAAAAGTTGTGAAGAGAGCAGGTCCCATGGAAGCTTTCTGACGACTGATGATGACTGTAGCGACCCTTTGCAGGCAGCGGACCCCCCCACCTGGTGACAGGTGCCTCTGCGGCCAAAAGCCACGTGTTTAACAGACACCTGCAAAGGCGGCACAACCCCAGTGCCTCATCAAAAGTCTGATGACTGTGGAAATAGTCAACCGGCTTTTCTTAAGCAAATTTGGTGTCGGGGCTGAAGGATGCCCGGAAGGTACCACACTGGTTGTGATCTGATCCGGGGCCACAGTACATGTGCTTTACACATGTAGCTGCGGTTAAAAAACGTCTAGGCCCCCCGAACCACGGGGACGTGGTTTTCCTTTGAAAACCACGATTACAAT	1.97E+06
